The Kd is the free concentration of one partner at which half of the binding sites on the other are occupied at equilibrium, for simple one-to-one binding.

The text below walks through data of PMC6937325, “Tuning PFKFB3 Bisphosphatase Activity Through Allosteric Interference” (Scientific Reports, 2019).

The target in assay [1] is T1, human inducible phospho-fructokinase bisphosphatase isoform 3, PFKFB3 (human), Q16875.
For assay [2], the target named is T1, human inducible phospho-fructokinase …. Description: MST; compound in MST buffer mixed 1:1 with 100 nM RED-NHS labeled recombinant PFKFB3, incubated 20 min at room temperature; Nanotemper.

T1 sequence (Q16875 whole entry, canonical isoform): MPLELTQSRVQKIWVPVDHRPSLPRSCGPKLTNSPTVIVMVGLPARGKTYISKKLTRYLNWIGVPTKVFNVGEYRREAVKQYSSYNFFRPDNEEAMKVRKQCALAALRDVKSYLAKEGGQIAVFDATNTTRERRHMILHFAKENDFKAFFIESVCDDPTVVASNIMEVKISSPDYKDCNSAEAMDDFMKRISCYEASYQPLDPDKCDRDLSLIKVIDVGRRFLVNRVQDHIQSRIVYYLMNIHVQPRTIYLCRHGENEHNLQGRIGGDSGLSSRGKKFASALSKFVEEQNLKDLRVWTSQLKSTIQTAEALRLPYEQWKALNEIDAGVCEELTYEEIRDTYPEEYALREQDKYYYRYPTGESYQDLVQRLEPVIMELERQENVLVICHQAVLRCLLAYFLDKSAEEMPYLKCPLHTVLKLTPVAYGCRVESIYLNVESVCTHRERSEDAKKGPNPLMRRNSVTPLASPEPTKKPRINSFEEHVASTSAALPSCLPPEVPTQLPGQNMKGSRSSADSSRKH

B1: compound 4 (peptide)
chain: YSGFLT
modifications: not checked
Turning to B1, the PFKFB3 bisphosphatase velocity (LC-MS/MS of F6P) with compound 4, substrate F2,6BP 20-50 µM; not significantly different from enzyme alone (nmol/min of F6P per nmol of enzyme) in assay [1] turned out to be 0.14. Further, the Kd in assay [2] is 18 µM.

B2: compound 5 (peptide)
chain: SFLLR
modifications: not checked
With B2, the Kd in assay [2] is 44 µM.
